Positions count from the first letter of the chain named.
Experiments:
Assay in all cases: ELISA, antibody coated, LAG-3 D12.mFc mutant in supernatant, normalised to control mutants
[1] = biological target: T1, human LAG-3-ECD.D12.mFc mutant P43A (human, UniProt P18627 37-252)
T1 construct: Alanine scanning mutant; construct limits as for m26
T1 chain: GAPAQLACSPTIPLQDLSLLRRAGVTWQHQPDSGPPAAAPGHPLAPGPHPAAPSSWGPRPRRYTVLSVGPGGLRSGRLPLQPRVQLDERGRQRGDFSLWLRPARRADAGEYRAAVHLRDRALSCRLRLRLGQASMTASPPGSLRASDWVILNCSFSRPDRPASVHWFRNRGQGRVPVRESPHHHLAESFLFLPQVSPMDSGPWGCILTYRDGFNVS
Method in brief: (§1)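 Antibody 1.53.3-uAb-IgG4k or 3.40.19-uAb-hIgG4L coated at 2 μg/mL, then exposed to supernatant containing quantified LAG-3 D12.mFc mutants. Detection with HRP anti-mFc (1:5000). Absorbance normalized to mean of control mutants; binding fold change <0.75 set as epitope cutoff.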

[2] = biological target: T2, human LAG-3-ECD.D12.mFc mutant T100A (human, UniProt P18627 37-252)
T2 construct: Alanine scanning mutant; construct limits as for m26
T2 chain: T1 chain with A7P, T64A
Method in brief: as §1

[3] = biological target: T3, human LAG-3-ECD.D12.mFc mutant D131A (human, UniProt P18627 37-252)
T3 construct: Alanine scanning mutant; construct limits as for m26
T3 chain: T1 chain with A7P, D95A
Method in brief: as §1

[4] = biological target: T4, human LAG-3-ECD.D12.mFc mutant L134A (human, UniProt P18627 37-252)
T4 construct: Alanine scanning mutant; construct limits as for m26
T4 chain: T1 chain with A7P, L98A
Method in brief: as §1

[5] = biological target: T5, human LAG-3-ECD.D12.mFc mutant L136A (human, UniProt P18627 37-252)
T5 construct: Alanine scanning mutant; construct limits as for m26
T5 chain: T1 chain with A7P, L100A
Method in brief: as §1

[6] = biological target: T6, human LAG-3-ECD.D12.mFc mutant R137A (human, UniProt P18627 37-252)
T6 construct: Alanine scanning mutant; construct limits as for m26
T6 chain: T1 chain with A7P, R101A
Method in brief: as §1

[7] = biological target: T7, human LAG-3-ECD.D12.mFc mutant P138A (human, UniProt P18627 37-252)
T7 construct: Alanine scanning mutant; construct limits as for m26
T7 chain: T1 chain with A7P, P102A
Method in brief: as §1

[8] = biological target: T8, human LAG-3-ECD.D12.mFc mutant D155A (human, UniProt P18627 37-252)
T8 construct: Alanine scanning mutant; construct limits as for m26
T8 chain: T1 chain with A7P, D119A
Method in brief: as §1

- Fold Change [1]: 0.494
- Fold Change [2]: 0.738
- Fold Change [3]: 0.045
- Fold Change [4]: 0.04
- Fold Change [5]: 0.043
- Fold Change [6]: 0.101
- Fold Change [7]: 0.106
- Fold Change [8]: 0.701
B1: 3.40.19-uAb-IgG4L (antibody, V domains shown)
VH: QLQLQESGPGLVKPSETLSLTCTVSGDSISSTSYYWGWIRQPPGKGLEWIGSFYYSGSTYYNPSLKSRVTISVDTSKNQFSLKLNSVTAADTAVYYCARMQLWSYDVDVWGQGTTVTVSS
VL: QSALTQPASVSGSPGQSITISCTGTSSDVGGYDYVAWYQQHPGKVPKLMIYDVSERPSGVSNRFSGSKSGNTASLTISGLQAEDEADYYCSSYTSTTTLVVFGGGTKLSVL
notes: Fully human antibody from OMT rats; IgG4 lambda by its name; also called 3.40.19-uAb-hIgG4L

— patent US20200407442A1 (WUXI BIOLOGICS IRELAND, published 2020)
